Experimental data taken from patent US20180030090A1 (AGENCY FOR SCIENCE TECHNOLOGY AND RESEARCH, published 2018).
Bridges are numbered along the chain shown (N, C = ends). [ ]: non-standard residue; d: D form. R8 = C=CCCCCCC[C@@](C)(N)C(=O)O; S5 = C=CCCC[C@](C)(N)C(=O)O; Ahx = NCCCCCC(=O)O

Legend:
Mdm2 in murine T22 cells = Mdm2 in murine T22 cells (murine, UniProt P23804 1-489, limits assumed); assay: cell-based or functional assay
Mdm2 (1-125) = target: T1, Mdm2 (1-125) (UniProt Q00987 1-125); assay: competitive fluorescence anisotropy, displacement of FAM-labelled 12-1 peptide from Mdm2 (1-125); apparent Kd
T1 construct: range 1-125; also called N-terminal domain of Mdm2; Mdm2 (1 to 125)
T1 sequence (Q00987 1-125 limits assumed): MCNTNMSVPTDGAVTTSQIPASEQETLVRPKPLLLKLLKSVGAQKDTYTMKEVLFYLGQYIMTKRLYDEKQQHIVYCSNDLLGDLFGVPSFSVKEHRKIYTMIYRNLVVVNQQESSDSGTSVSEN
Experimental: All titrations were carried out in triplicate.

Chain of Mdm2 in murine T22 cells (P23804 whole entry): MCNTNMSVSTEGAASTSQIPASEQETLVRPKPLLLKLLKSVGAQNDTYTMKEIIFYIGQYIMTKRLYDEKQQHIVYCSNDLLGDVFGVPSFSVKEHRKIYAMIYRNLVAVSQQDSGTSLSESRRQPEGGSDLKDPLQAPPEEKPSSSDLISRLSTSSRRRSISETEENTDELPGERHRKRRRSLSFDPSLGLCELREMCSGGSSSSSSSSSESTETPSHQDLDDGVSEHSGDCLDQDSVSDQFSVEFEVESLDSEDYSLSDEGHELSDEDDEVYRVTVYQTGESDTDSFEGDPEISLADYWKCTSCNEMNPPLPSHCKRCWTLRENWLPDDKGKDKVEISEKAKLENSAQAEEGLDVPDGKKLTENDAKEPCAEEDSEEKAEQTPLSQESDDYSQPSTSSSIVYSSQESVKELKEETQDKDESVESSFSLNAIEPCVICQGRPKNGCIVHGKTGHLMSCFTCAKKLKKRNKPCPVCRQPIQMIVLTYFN

T22 IC50 (0% µM), T22 p53 reporter assay without serum (Mdm2 in murine T22 cells) | T22 Ic50 (10% µM), T22 p53 reporter assay with 10% fetal calf serum (Mdm2 in murine T22 cells) | Kd (Mdm2 (1-125)) | Binder
2.75 µM | 17.9 µM |  | Ac-TSF[R8]EYWALL[S5]-NH2 (staple 4-11) [sMTide-02 (capped), Ac-TSFX8EYWALLS5-NH2]
~0.78 µM | 9.95 µM | 24.4 nM | Ac-KK[Ahx]TSF[R8]EYWALL[S5]ENF-NH2 (staple 7-14) [YS-07 (capped), Ac-KK-Ahx-TSFX8EYWALLS5ENF-NH2]
